{"source": "the supplement of paper PMC10567573", "parents": {"B1": {"name": "CHCHD3 (parent)", "chain": "YSGAYGASVSDEELKRRVAEELAL"}}, "data": [{"variants_of": "B1", "test": "protein stability index of a GFP-peptide fusion (GPS, HEK-293T) (PSI 1-6); higher = more stable", "conditions": "c terminus: a fixed tail appended", "values": [{"variant": "YSGAYGASVSDEELKRRVAAELAL", "note": "[E20A]", "protein stability index": 2.19}, {"variant": "YSGAYGASVSDEELKRRVADELAL", "note": "[E20D]", "protein stability index": 3.01}, {"variant": "YSGAYGASVSDEELKRRVAPELAL", "note": "[E20P]", "protein stability index": 2.49}, {"variant": "YSGAYGASVSDEELKRRVARELAL", "note": "[E20R]", "protein stability index": 2.49}, {"variant": "YSGMYGASVSDEELKRRVAEELAL", "note": "[A4M]", "protein stability index": 2.59}, {"variant": "YSGNYGASVSDEELKRRVAEELAL", "note": "[A4N]", "protein stability index": 2.97}, {"variant": "YSGPYGASVSDEELKRRVAEELAL", "note": "[A4P]", "protein stability index": 4.24}, {"variant": "YSGGYGASVSDEELKRRVAEELAL", "note": "[A4G]", "protein stability index": 2.27}, {"variant": "YSGFYGASVSDEELKRRVAEELAL", "note": "[A4F]", "protein stability index": 1.95}, {"variant": "YSGSYGASVSDEELKRRVAEELAL", "note": "[A4S]", "protein stability index": 3.39}, {"variant": "YSGHYGASVSDEELKRRVAEELAL", "note": "[A4H]", "protein stability index": 2.84}, {"variant": "YSGAYGASVSDEELKRRVAEELEL", "note": "[A23E]", "protein stability index": 2.86}, {"variant": "YSGAYGASVSDEELKRRVAEELRL", "note": "[A23R]", "protein stability index": 2.26}, {"variant": "YSGAYGASVSDEELKRRVAEELLL", "note": "[A23L]", "protein stability index": 2.72}, {"variant": "YSGAYGASVSDEELKRRVAEELML", "note": "[A23M]", "protein stability index": 2.65}, {"variant": "YSGAYGASVSDRELKRRVAEELAL", "note": "[E12R]", "protein stability index": 2.59}, {"variant": "YSGAYGASVSDQELKRRVAEELAL", "note": "[E12Q]", "protein stability index": 2.09}, {"variant": "YSGAYGASVSDDELKRRVAEELAL", "note": "[E12D]", "protein stability index": 2.99}, {"variant": "YSGAYGASVSDTELKRRVAEELAL", "note": "[E12T]", "protein stability index": 2.71}, {"variant": "YSGAYGASVSDLELKRRVAEELAL", "note": "[E12L]", "protein stability index": 2.17}, {"variant": "YSGAYGASVSDKELKRRVAEELAL", "note": "[E12K]", "protein stability index": 2.53}, {"variant": "YSGAYGASVSDSELKRRVAEELAL", "note": "[E12S]", "protein stability index": 2.09}, {"variant": "YSGAYGASVSDAELKRRVAEELAL", "note": "[E12A]", "protein stability index": 2.29}, {"variant": "YSGAYGASVSDNELKRRVAEELAL", "note": "[E12N]", "protein stability index": 2.4}, {"variant": "YSGAYGASVLDEELKRRVAEELAL", "note": "[S10L]", "protein stability index": 2.8}, {"variant": "YSGAYGASVKDEELKRRVAEELAL", "note": "[S10K]", "protein stability index": 2.46}, {"variant": "YSGAYGASVIDEELKRRVAEELAL", "note": "[S10I]", "protein stability index": 2.69}, {"variant": "YSGAYGASVNDEELKRRVAEELAL", "note": "[S10N]", "protein stability index": 2.4}, {"variant": "YSGAYGASVDDEELKRRVAEELAL", "note": "[S10D]", "protein stability index": 3.35}, {"variant": "YSGAYGASVEDEELKRRVAEELAL", "note": "[S10E]", "protein stability index": 3.58}, {"variant": "YSGAYGAYVSDEELKRRVAEELAL", "note": "[S8Y]", "protein stability index": 2.07}, {"variant": "YSGAYGAQVSDEELKRRVAEELAL", "note": "[S8Q]", "protein stability index": 3.02}, {"variant": "YSGAYGATVSDEELKRRVAEELAL", "note": "[S8T]", "protein stability index": 2.01}, {"variant": "YSGAYGAIVSDEELKRRVAEELAL", "note": "[S8I]", "protein stability index": 2.08}, {"variant": "YSGAYGAWVSDEELKRRVAEELAL", "note": "[S8W]", "protein stability index": 4.28}, {"variant": "YSGAYGAGVSDEELKRRVAEELAL", "note": "[S8G]", "protein stability index": 3.1}, {"variant": "YSGAYGASVSDEELGRRVAEELAL", "note": "[K15G]", "protein stability index": 2.58}, {"variant": "YSGAYGASVSDEELHRRVAEELAL", "note": "[K15H]", "protein stability index": 2.69}, {"variant": "YSGAYGASVSDEELCRRVAEELAL", "note": "[K15C]", "protein stability index": 3.2}, {"variant": "YSGAYGASVSDEELARRVAEELAL", "note": "[K15A]", "protein stability index": 2.99}, {"variant": "YSGAYGASVSDEELTRRVAEELAL", "note": "[K15T]", "protein stability index": 2.22}, {"variant": "YSGAYGASVSDEELQRRVAEELAL", "note": "[K15Q]", "protein stability index": 2.83}, {"variant": "YSGAYGASVSDEELFRRVAEELAL", "note": "[K15F]", "protein stability index": 2.11}, {"variant": "YSGAYGASVSDEELMRRVAEELAL", "note": "[K15M]", "protein stability index": 2.61}, {"variant": "YSGAYGMSVSDEELKRRVAEELAL", "note": "[A7M]", "protein stability index": 2.94}, {"variant": "YSGAYGDSVSDEELKRRVAEELAL", "note": "[A7D]", "protein stability index": 4.27}, {"variant": "YSGAYGHSVSDEELKRRVAEELAL", "note": "[A7H]", "protein stability index": 2.98}, {"variant": "YSGAYGQSVSDEELKRRVAEELAL", "note": "[A7Q]", "protein stability index": 3.04}, {"variant": "YSGAYGYSVSDEELKRRVAEELAL", "note": "[A7Y]", "protein stability index": 2.61}, {"variant": "YSGAYGASVSDEELKRRVAEKLAL", "note": "[E21K]", "protein stability index": 2.88}, {"variant": "YSGAYGASVSDEELKRRVAEDLAL", "note": "[E21D]", "protein stability index": 2.45}, {"variant": "YSGAYGASVSDEELKRRVAELLAL", "note": "[E21L]", "protein stability index": 2.87}, {"variant": "YSGAYGASVSDEELKRRVAEILAL", "note": "[E21I]", "protein stability index": 2.12}, {"variant": "YSGAYGASVSDEELKRRVAETLAL", "note": "[E21T]", "protein stability index": 2.33}, {"variant": "YSGAYGASVSDEELKRRVAEPLAL", "note": "[E21P]", "protein stability index": 3.47}, {"variant": "YSAAYGASVSDEELKRRVAEELAL", "note": "[G3A]", "protein stability index": 2.94}, {"variant": "YSEAYGASVSDEELKRRVAEELAL", "note": "[G3E]", "protein stability index": 4.87}, {"variant": "YSPAYGASVSDEELKRRVAEELAL", "note": "[G3P]", "protein stability index": 3.78}, {"variant": "YSDAYGASVSDEELKRRVAEELAL", "note": "[G3D]", "protein stability index": 5.41}, {"variant": "YSKAYGASVSDEELKRRVAEELAL", "note": "[G3K]", "protein stability index": 3.17}, {"variant": "YSIAYGASVSDEELKRRVAEELAL", "note": "[G3I]", "protein stability index": 4.29}, {"variant": "YSMAYGASVSDEELKRRVAEELAL", "note": "[G3M]", "protein stability index": 3.81}, {"variant": "YSHAYGASVSDEELKRRVAEELAL", "note": "[G3H]", "protein stability index": 4.1}, {"variant": "YSGAYGASVSDEELKRRVCEELAL", "note": "[A19C]", "protein stability index": 2.67}, {"variant": "YSGAYGASVSDEELKRRVEEELAL", "note": "[A19E]", "protein stability index": 3.04}, {"variant": "YSGAYGASVSDEELKRRVWEELAL", "note": "[A19W]", "protein stability index": 2.69}, {"variant": "YSGAYGASVSDEELKRRVTEELAL", "note": "[A19T]", "protein stability index": 1.94}, {"variant": "YSGAYGASVSDEELKRRVKEELAL", "note": "[A19K]", "protein stability index": 2.47}, {"variant": "YSGAYGASVSDEELKRRVHEELAL", "note": "[A19H]", "protein stability index": 3.24}, {"variant": "YSGAYGASVSDEELKRRVREELAL", "note": "[A19R]", "protein stability index": 2.95}, {"variant": "YSGAYGASVSDEEKKRRVAEELAL", "note": "[L14K]", "protein stability index": 2.94}, {"variant": "YSGAYGASVSDEEPKRRVAEELAL", "note": "[L14P]", "protein stability index": 2.24}, {"variant": "YSGAYGASVSDEETKRRVAEELAL", "note": "[L14T]", "protein stability index": 3.12}, {"variant": "YSGAYGASVSDEEMKRRVAEELAL", "note": "[L14M]", "protein stability index": 2.19}, {"variant": "YSGAYGASVSDEERKRRVAEELAL", "note": "[L14R]", "protein stability index": 2.25}, {"variant": "YSGAYGASVSDEEWKRRVAEELAL", "note": "[L14W]", "protein stability index": 2.34}, {"variant": "YSGAYGASVSDEEEKRRVAEELAL", "note": "[L14E]", "protein stability index": 3.48}, {"variant": "YSGAYGASVSDEELKRRYAEELAL", "note": "[V18Y]", "protein stability index": 2.09}, {"variant": "YSGAYGASVSDEELKRRIAEELAL", "note": "[V18I]", "protein stability index": 2.86}, {"variant": "YSGAYGASVSDEELKRRRAEELAL", "note": "[V18R]", "protein stability index": 2.44}, {"variant": "YSGAYGASVSDEELKRRDAEELAL", "note": "[V18D]", "protein stability index": 2.54}, {"variant": "YSGAYGASVSDEELKRRWAEELAL", "note": "[V18W]", "protein stability index": 2.35}, {"variant": "YSGAYGASVSDEELKRRLAEELAL", "note": "[V18L]", "protein stability index": 2.93}, {"variant": "YSGAIGASVSDEELKRRVAEELAL", "note": "[Y5I]", "protein stability index": 4.44}, {"variant": "YSGAGGASVSDEELKRRVAEELAL", "note": "[Y5G]", "protein stability index": 4.92}, {"variant": "YSGAVGASVSDEELKRRVAEELAL", "note": "[Y5V]", "protein stability index": 4.95}, {"variant": "YSGAHGASVSDEELKRRVAEELAL", "note": "[Y5H]", "protein stability index": 4.02}, {"variant": "YSGAFGASVSDEELKRRVAEELAL", "note": "[Y5F]", "protein stability index": 1.33}, {"variant": "YSGATGASVSDEELKRRVAEELAL", "note": "[Y5T]", "protein stability index": 5.01}, {"variant": "YSGAKGASVSDEELKRRVAEELAL", "note": "[Y5K]", "protein stability index": 4.14}, {"variant": "YSGADGASVSDEELKRRVAEELAL", "note": "[Y5D]", "protein stability index": 5.3}, {"variant": "YSGAAGASVSDEELKRRVAEELAL", "note": "[Y5A]", "protein stability index": 5.09}, {"variant": "YSGANGASVSDEELKRRVAEELAL", "note": "[Y5N]", "protein stability index": 4.55}, {"variant": "YSGAWGASVSDEELKRRVAEELAL", "note": "[Y5W]", "protein stability index": 2.4}]}]}
